This data set in a line: amyloid nucleation score (Sup35N fusion, yeast selection) (log enrichment); library NNK1; higher = more nucleation; inactive = no reads after selection. In short, it runs like this: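 In psi-negative yeast, Sup35N fusions carrying peptides of 20 random codons were induced with 100 μM copper sulfate for 24 hours. The cells then grew 7 days at 30°C on medium lacking adenine and uracil, and plasmid inserts from input and output were Illumina-sequenced, excluding sequences with under 100 input reads. Nucleation score is the DiMSum log enrichment of output over input reads, centred on the mode score of non-aggregating sequences.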

Our source for the amyloid nucleation score values is the supplement of paper PMC12042874.

± gives the uncertainty stated by the source.

In the case of MFFSSIYVAYYGLLLIYSYM, the amyloid nucleation score entry was “inactive”. With QQGPFVCWIQR, the amyloid nucleation score is -0.583 ± 1.1. The substance TCVGDCGCIGWSTIFFSDYS registered an amyloid nucleation score of 1.43 ± 0.72.

In turn, ILRCRGNALNAYWRGSFNR came in with an amyloid nucleation score of 4.59 ± 0.078. For NVHSYRSLRLDELVMKSMCE, the amyloid nucleation score was 2.66 ± 0.2.

In turn, SICFYSLNSTPSLVGSWWGG showed an amyloid nucleation score of 1.3 ± 0.85.

On to LYESELLNNHQETSPQSSEG, for which the amyloid nucleation score was -0.349 ± 0.56. QTHEYGLPRMIR: the amyloid nucleation score was determined as 0.884 ± 0.69. Regarding SSGYYFVQWTCYLRK, the amyloid nucleation score was -1.27 ± 2.7. HRSRLFAISERFEDIFYI gave an amyloid nucleation score of 0.611 ± 0.78.

In turn, RDMVKLHVHTLHCNDDILGL displayed an amyloid nucleation score of -0.896 ± 0.62.

Take TYGEYRTYISYH: the amyloid nucleation score is 0.389 ± 0.43. The substance EYGVSLV returned an amyloid nucleation score of 0.089 ± 0.53.

GRSFYNCPPLRIHCLCIMEV showed an amyloid nucleation score of 0.557 ± 0.68. SELWDLG yielded an amyloid nucleation score of -0.197 ± 0.85.

As to QKRRKLARLASRYFPS, the amyloid nucleation score amounted to 0.325 ± 0.57. The result for WAYVAALRGYCYVGGRYLYT reads -0.91 ± 1.2; that for TAMKILPAQRGCIYVWHNRR, “inactive”; that for TLIWSCARHWV, 1.44 ± 0.22. The result for RFRKHRFVVLLCYWCLVFRE reads 0.766 ± 1.2. For the substance SGVVE, the amyloid nucleation score is -0.433 ± 0.39. In the case of QWRSFYTAWVAYRDECPGGF, the amyloid nucleation score is 2.44 ± 0.15. In turn, YALRFFDDYESAAGSVR yielded an amyloid nucleation score of -0.454 ± 0.66. With AFSSLTC, the amyloid nucleation score is -0.087 ± 1. Take WSVLCSFRSSSNQAFVFRVQ: the amyloid nucleation score is -0.827 ± 0.77. For PYKIEWLSRTHTAGSYSLQP, the amyloid nucleation score is -0.135 ± 0.44. Substance FLYSSLFDKVNCCNRPPVSS returned an amyloid nucleation score of -0.014 ± 0.7.

Regarding YLTWYNRYCVRYITNYHPMK, the amyloid nucleation score came to 5.96 ± 0.079. With ISYQVLFIDRWGCRSLPCVW the figure was 0.395 ± 0.39; with VISGSDVLRYPRYSNAAFRT, “inactive”; with GQFEHGVGVQQSSGSTQRWL, -1.21 ± 2.4.

As for SYNRIILTFWSFLL, the amyloid nucleation score stood at 1.13 ± 0.35. The substance LLDSNHSVLYFIFGLVT had an amyloid nucleation score of 1.27 ± 0.42.

Regarding GLWHAC, the amyloid nucleation score result was “inactive”. FVFLISAL yielded an amyloid nucleation score of -0.617 ± 0.5. The substance YVSADLGMYTVDGAEFYCEN returned an amyloid nucleation score of 0.106 ± 0.43. Substance VQGYTYGGCDGFMEWLGKLI showed an amyloid nucleation score of -0.295 ± 0.61. EYLFCCVCADLFNTWDKSLG registered an amyloid nucleation score of 7.29 ± 0.052. In turn, RLCASYSKYETFVADARRDG displayed an amyloid nucleation score of 0.413 ± 0.19. In turn, SCPAGFCCAGANKYHVLGV returned an amyloid nucleation score of -0.137 ± 0.56. For MTMKLFRQD, the amyloid nucleation score was -0.049 ± 1.1. Take CILSSHL: the amyloid nucleation score turned out to be 2.61 ± 0.33. Turning to FDLVYACANPTFGINVRTGR, the amyloid nucleation score is 2.67 ± 0.12. For HFNYNNTSMFSLTHSWHGIM, the amyloid nucleation score was found to be 4.71 ± 0.089. RDPRAMQLKSRLGMWKNQWY registered an amyloid nucleation score of 0.91 ± 0.78.

Consider SWNLGADIAMDDHVESV, for which the amyloid nucleation score was 0.601 ± 0.39. The substance INVWNLSWGNMIRAKNHLGV showed an amyloid nucleation score of -0.107 ± 0.53.

In turn, NNFSSNWWLELWYRYFVYPI displayed an amyloid nucleation score of 0.666 ± 0.75. On to FTCMCH, for which the amyloid nucleation score entry is “inactive”. As for HQELMSFFLLCLH, the amyloid nucleation score result is “inactive”. Turning to DNAYPHPCSIYYNNNQFLRF, the amyloid nucleation score turned out to be 6.734 ± 0.054. TGWLWYQHRWSDTWLPGTMR: the amyloid nucleation score was found to be 2.04 ± 0.15. With RVIILMFTHRTCNS the figure was -1.07 ± 2.7. AELVQFSCLKLSFKSSENPS showed an amyloid nucleation score of 3.06 ± 0.21. The substance VSPMWVGYSRTSKLW yielded an amyloid nucleation score of 0.036 ± 0.26.

For MLLSH, the amyloid nucleation score is 4.34 ± 0.056. FPWSGAWMD returned an amyloid nucleation score of 0.029 ± 1.

In turn, YFGLRSVKRWQT returned an amyloid nucleation score of -0.106 ± 0.52. With PDAFKSLLLERRAWIKFVSK, the amyloid nucleation score is 1.15 ± 0.7. With NYNQGRGYRSVSSNIIEGDK the figure was 1.74 ± 0.49; with RACLQFRQLVGDRLG, 1.52 ± 0.73; with SRPYLLRLR, 0.455 ± 0.57. The result for GMSGYKKFCSGIWWSLNQCS reads 0.408 ± 0.42; that for TIGLCAMYSAARLLV, 0.717 ± 0.93. Regarding CMTPS, the amyloid nucleation score result was “inactive”. SPLMRFFSTDSGARIFLNMS returned an amyloid nucleation score of -0.388 ± 0.52. As to IRSVGRSLRFMYS, the amyloid nucleation score was 0.204 ± 0.46. IMRNVQTDA gave an amyloid nucleation score of 0.383 ± 0.52. YFMFSLCSYSNYWLRWGFV had an amyloid nucleation score of 0.121 ± 0.22. Turning to NPLVFRN, the amyloid nucleation score was -0.122 ± 0.61.

PIWLTDKFGG showed an amyloid nucleation score of -0.24 ± 0.61. With TLDLWNVRFC the figure was -0.057 ± 1.4; with RIIQGFLAM, -0.153 ± 1.4; with DCNFCL, -0.545 ± 1.1. Regarding FALKIVGVVPVAVGMTIDDW, the amyloid nucleation score came out at 0.052 ± 0.85.

For CRGFFLGFPIHQVKAFCFCR, the amyloid nucleation score was -0.047 ± 1.7. RNCEEGFWRSEQPDHTYKLA yielded an amyloid nucleation score of -0.955 ± 0.62.

DSIGVTH gave an amyloid nucleation score of -0.002 ± 0.41. In turn, NFVARSLLPNILAGLRGTGC came in with an amyloid nucleation score of -0.139 ± 0.59. On to RMLIDGLSLVVDWRYVVEGG, for which the amyloid nucleation score is -0.192 ± 0.31. The result for AYCGSWLQYL reads -0.231 ± 0.76; that for SSAVD, 0.329 ± 1.1; that for VCLVVEIG, 1.04 ± 0.93.

NFFDLLYFL registered an amyloid nucleation score of 0.175 ± 0.82. The result for SSGRRWWTFQHHQIYLKVRS reads 1.09 ± 0.59. The substance LGQLNFLMWYPKYECRIYMG came in with an amyloid nucleation score of 6.656 ± 0.058. With CPGFD, the amyloid nucleation score was 0.595 ± 0.64. WKLPWALSRPVKYRYHEVGR registered an amyloid nucleation score of 0.225 ± 0.43. In turn, KNFRRYWGPSLIEIG gave an amyloid nucleation score of 1.13 ± 0.85. Substance YYPVKSFELGWSHLGGKHWA registered an amyloid nucleation score of 1.34 ± 0.7. Consider KSCTCRNSSYRYVHINLARY, for which the amyloid nucleation score was -0.253 ± 0.6.

For the substance VDNNARDTSVGSALENMWVL, the amyloid nucleation score is 1.16 ± 0.62. With CIIVFPISTPWAQGSYIRIQ, the amyloid nucleation score worked out at 0.041 ± 1.2. Substance TFTDS had an amyloid nucleation score of 0.176 ± 0.75. On to HGIIHFVLQMW, for which the amyloid nucleation score is 1.85 ± 0.49. With RLHPCRVATRPQHYT the entry was “inactive”; with FLFLTRRWEFVHMLPVSCEV, -0.817 ± 2.4. With NATNLENQKFTEDALKSPGW the figure was -0.037 ± 0.71; with YCTLRESKPPMDGSM, -0.898 ± 1.7.

In turn, GWTIKSSYYG came in with an amyloid nucleation score of -0.906 ± 1.4. In turn, HYQMLDAISRSSVYVLSKSR returned an amyloid nucleation score of -0.239 ± 0.29. FGLKYRSDGVPCPDYLARKY came in with an amyloid nucleation score of 0.702 ± 0.51. YTTVLAYLLTLDVGSSALSG yielded an amyloid nucleation score of -0.465 ± 1.2. ACNTSSIYALTFVCHLSVGV had an amyloid nucleation score of 4.67 ± 0.057. On to IGMLGLCGRIPMQAEGGSFR, for which the amyloid nucleation score is 0.712 ± 0.52.

In the case of TQIAESYLVQANNSAEATAA, the amyloid nucleation score is -0.32 ± 1.4. In the case of YVQFCGQHARR, the amyloid nucleation score is -0.516 ± 1.7. Substance LLDWGFPG displayed an amyloid nucleation score of -1.22 ± 1.6. In the case of LDGTAYVDFVVCLEGGTDVI, the amyloid nucleation score was -0.18 ± 0.37. The result for LVNNSSCYHCQRLGQLEVNK reads 0.215 ± 0.33; that for RFWAACSFTDGR, 1.71 ± 0.13; that for SWFIL, 0.428 ± 0.85.

For KIVCLKFYVIDMRSMLTVVS, the amyloid nucleation score came to 2.54 ± 0.088.

For the substance VCLLHNIVKGFARYINSHK, the amyloid nucleation score was 0.423 ± 0.5.

The substance VKTINFISQLSCWCKRPFRK had an amyloid nucleation score of 8.673 ± 0.06. With LFVGWYYYSVFSFV, the amyloid nucleation score entry is “inactive”. VLIGIWLHLGHFEPALSM returned an amyloid nucleation score of -0.133 ± 0.53. In turn, SWCVTCVLA displayed an amyloid nucleation score of 7.204 ± 0.053. With HANISLRSWRFRYHCREFKG the figure was 1.47 ± 0.2. CDVRLPF showed an amyloid nucleation score of 0.249 ± 0.61.

Take GIVRVKSTCERSPDSATYDL: the amyloid nucleation score was -0.205 ± 0.91. The result for STVIHN reads 1.23 ± 0.84; that for FSVNILQQFIMGQSRICVGA, -0.044 ± 0.38; that for RERIECDWTGLAFGDPKVSV, -0.646 ± 2.1. With SDGWCRLRCES, the amyloid nucleation score is -0.429 ± 0.59.

As for PVVGRARRYRREAAENVVLD, the amyloid nucleation score is 0.943 ± 0.6. As to QGIVAVLED, the amyloid nucleation score entry was “inactive”. On to NSMANREYGYIELDWV, for which the amyloid nucleation score result was “inactive”. As for DDMVPNWARVTCLSQNWL, the amyloid nucleation score was found to be 0.385 ± 0.54. With FETYFEHYWGCVTYSSMFWS, the amyloid nucleation score turned out to be 2.45 ± 0.14.

For TATGGASETERTAVTMY, the amyloid nucleation score was -0.609 ± 1.9. The substance RFFPLVLGSLKYM displayed an amyloid nucleation score of 0.827 ± 0.7. For VLSRSMH, the amyloid nucleation score is -0.206 ± 1.7. Turning to YFRSSGGAFFGNLDVCGNYV, the amyloid nucleation score was found to be 0.124 ± 0.48. With IINMGTYRSTMLNILLKEKC, the amyloid nucleation score was determined as 2.88 ± 0.27. In the case of TSSDCLLDSSIFNVGKFWYV, the amyloid nucleation score is 0.019 ± 0.53. In turn, WKGLRYLNFYFTE had an amyloid nucleation score of 4.52 ± 0.059. With IWCHRSGRLFPSMLLKYYRD the figure was -0.766 ± 1.7.

For the substance SKGFDDESTAGSFFKLMLLY, the amyloid nucleation score is -1.9 ± 2.4. CRVLWQWNSKLGCFAAALNL came in with an amyloid nucleation score of -0.326 ± 0.63. Regarding WASGRGSSVRIKQLPHDRQQ, the amyloid nucleation score was -0.779 ± 0.43.

The substance LYIMGRLDFIFRWVTGGFDT displayed an amyloid nucleation score of -0.838 ± 0.77.
